We go through three molecules from US20120128704A1 (published 2012).

The labels stand for the following.
T1: survivin peptide on HLA-A*02:01 (human)
T1 peptide: LMLGEFLKL

B1: SW-Surv-72 (TCR, V domains shown)
Valpha: AQKITQTQPGMFVQEKEAVTLDCTYDTSDQSYGLFWYKQPSSGEMIFLIYQGSYDEQNATEGRYSLNFQKARKSANLVISASQLGDSAMYFCAMREGGGYNKLIFGAGTRLAVHP
Vbeta: SQTIHQWPATLVQPVGSPLSLECTVEGTSNPNLYWYRQAAGRGLQLLFYSVGIGQISSEVPQNLSASRPQDRQFILSSKKLLLSDSGFYLCAGQDLNTEAFFGQGTRLTVV
B2: SW-Surv-66 (TCR, V domains shown)
Valpha: GENVEQHPSTLSVQEGDSAVIKCTYSDSASNYFPWYKQELGKRPQLIIDIRSNVGEKKDQRIAVTLNKTAKHFSLHITETQPEDSAVYFCAARAGNMLTFGGGTRLMVKP
Vbeta: SQTIHQWPATLVQPVGSPLSLECTVEGTSNPNLYWYRQAAGRGLQLLFYSVGIGQISSEVPQNLSASRPQDRQFILSSKKLLLSDSGFYLCAWGTGLALYEQYFGPGTRLTVT
B3: SW-Surv-22 (TCR, V domains shown)
Valpha: EDQVTQSPEALRLQEGESSSLNCSYTVSGLRGLFWYRQDPGKGPEFLFTLYSAGEEKEKERLKATLTKKESFLHITAPKPEDSATYLCAVQAYSNSGYALNFGKGTSLLVTP
Vbeta: SAVISQKPSRDICQRGTSLTIQCQVDSQVTMMFWYRQQPGQSLTLIATANQGSEATYESGFVIDKFPISRPNLTFSTLTVSNMSPEDSSIYLCSVEDSYGYTFGSGTRLTVV

The test addresses T1, survivin peptide on HLA-A*02:01. Kind of test: multimer staining.
Experimental: Up to 1×10⁶ of cells were incubated in 50 μl volume for 25 min with 4 μg PE-labeled multimer on ice in the dark. For sorting, up to 5×10⁶ cells were incubated with 12 μg multimer in 100 μl PBS+0.5% human serum. CD8-APC antibody was then added at 1/50 for an additional 25 min. After staining cells were washed twice and either fixed in FACS buffer with 1% paraformaldehyde and analysed by flow cytometry using a FACSCalibur (BD Biosciences) or diluted in PBS+0.5% human serum with PI for sorting. 20-50×10⁶ total cells per priming culture were stained for sorting. PI-negative cells were gated and CD8⁺multimer⁺ T cells were sorted on a FACSAria cell sorter (BD Biosciences) with a 70 μm nozzle, at a rate of 15,000 events/s. […] Pentamer staining was performed according to the manufacturer's instructions.
As for B1, the binding result is recorded as “recognises”.

Consider B2, for which the binding result is recorded as “recognises”.

On to B3, for which the binding result is on record as “recognises”.
